Results published in article PMC11538491.
Where two headings read alike, the source gives them in different places.

Assays:
[1] = target: parvovirus B19 (B19V) virion purified from infected patient plasma, genotype 1 (human parvovirus B19); assay: cryo-EM structure
[2] = target: parvovirus B19 (B19V) virion purified from infected patient plasma, genotype 1 (human parvovirus B19); assay: cryo-EM structure; remark: listed apart in the source

| Molecule | occupancy of the binding sites [1] [%] | stoichiometry N (molecules per capsid) [1] | occupancy of the binding sites [2] [%] | stoichiometry N (molecules per capsid) [2] | stoichiometry N (sites occupied per capsid (of 30)) [2] |
| --- | --- | --- | --- | --- | --- |
| inter-alpha-trypsin inhibitor heavy chain 4 (ITIH4) from human plasma, bound to the B19V capsid (natural protein) | 19.4 | 12 |  |  |  |
| serpinA3 from human plasma, bound to the B19V capsid (natural protein, five extra densities at the predicted N-glycosylation sites (positions not given)) HPNSPLDEENLTQENQDRGTHVDLGLASANVDFAFSLYKQLVLKAPDKNVIFSPLSISTALAFLSLGAHNTTLTEILKGLKFNLTETSEAEIHQSFQHLLRTLNQSSDELQLSMGNAMFVKEQLSLLDRFTEDAKRLYGSEAFATDFQDSAAAKKLINDYVKNGTRGKITDLIKDLDSQTMMVLVNYIFFKAKWEMPFDPQDTHQSRFYLSKKKWVMVPMMSLHHLTIPYFRDEELSCTVVELKYTGNASALFILPDQDKMEEVEAMLLPETLKRWRDSLEFREIGELYLPKFSISRDYNLNDILLQLGIEEAFTSKADLSGITGARNLAVSQVVHKAVLDVFEEGTEASAATAVKITLLSALVETRTIVRFNRPFLMIIVPTDTQNIFFMSKVTNPKQA |  |  | 38.3 | 23 | 22 |
